This data set deals with PSMα3. Nature of the data set: EMSA. Background: A gel shift assay detects complexes by their altered migration in electrophoresis.

One may read the Kd as the concentration at which binding is half-saturated. Higher therefore signals a looser complex.

On to Poly (A) RNA, oligoA, for which the Kd was 94.5 µM. For Poly (AU) RNA, oligoA/oligoU duplex, the Kd was determined as 61.8 µM.
